B1: unnamed (protein)
chain 1: QVQLVQSGAEVKKPGASVKVSCKASGYSFTSSWIHWVKQAPGQGLEWMGEINPGNVRTNYNENFRNKVTMTVDTSISTAYMELSRLRSDDTAVYYCTRVVYGEPYFDYWGQGTLVTVSS
chain 2: QIVLTQSPGTLSLSPGERATMTCTASSSVSSSYFHWYQQKPGQAPRLWIYRTSRLASGVPDRFSGSGSGTDFTLTISRLEPEDAATYYCHQFHRSPLTFGAGTKLEIK
B2: unnamed (protein)
chain 1: B1 chain 1 with N52Y, V56S, R57N, V99L, V100R
chain 2: B1 chain 2
B3: unnamed (protein)
chain 1: B1 chain 1 with S28T, S32N, N52Y, V56S, R57N, V100R, Y101F, Y105W
chain 2: B1 chain 2
B4: unnamed (protein)
chain 1: B1 chain 1 with S28T, N52Y, V56S, R57N, V99S, V100R
chain 2: B1 chain 2
B5: unnamed (protein)
chain 1: B1 chain 1 with S28T, N52K, V56S, R57N, V100S
chain 2: B1 chain 2
B6: unnamed (protein)
chain 1: B1 chain 1 with V99M, V100R, Y105W
chain 2: B1 chain 2
B7: unnamed (protein)
chain 1: B1 chain 1 with S28T, S32N, N52Y, V56S, R57N, V100R, Y105W
chain 2: B1 chain 2
B8: unnamed (protein)
chain 1: B1 chain 1 with S28T, N52Y, V56S, R57N, V99S, V100R, Y105W
chain 2: B1 chain 2
B9: unnamed (protein)
chain 1: B1 chain 1 with S28T, S32N, N52Y, V56S, R57N, V100K
chain 2: B1 chain 2
B10: unnamed (protein)
chain 1: B1 chain 1 with S32N, N52Y, V56S, R57N, V100R, Y105W
chain 2: B1 chain 2

Numbering of substitutions follows the chain as printed.

This test concerns the target IL36R. The test can be described thus: Kd (SPR).
By Kd is commonly meant a measure of binding affinity in units of concentration. For the molecule B1, the Kd came to 0.649 nM.
As to B2, the Kd came to 6.22 nM.
The molecule B3 had a Kd of 46.1 nM.
Take B4: the Kd was determined as 38.2 nM.
Take B5: the Kd was 138 nM.
Then B6, with 68.3 nM; and B7, with 31.8 nM.
B8 displayed a Kd of 157 nM.
With B9, the Kd came out at 54.3 nM.
B10 gave a dissociation constant (Kd) of 3.35 nM.
